# In PMC3525766 (Journal of structural biology, 2012):
# Target: the molecule itself
# Experiment: cross-linking
protein,measurement,value
coiled-coil domain of human LRRFIP1 (LRRFIP1-CC) (domain or fragment) MDSLAEVEEKYKKAMVSNAQLDNEKTNFMYQVDTLKDMLLELEEQLAESRRQYEEKNKEFEREKHAHSILQFQFAEVKEALKQREEMLEK,stoichiometry N,2
